Data: patent WO2024034543A1

Tests used:
[1] = molecular target: actin fused with S tag, expressed in XTC cells; experiment: single-molecule time-lapse imaging on fixed XTC cells expressing tag-fused actin; reference S66B WT
[2] = molecular target: actin fused with FLAG tag, expressed in XTC cells; experiment: single-molecule time-lapse imaging on fixed XTC cells expressing tag-fused actin; reference 2H8 WT
[3] = molecular target: actin fused with TARGET tag, expressed in XTC cells; experiment: single-molecule time-lapse imaging on fixed XTC cells expressing tag-fused actin; reference P20.1 WT
[4] = molecular target: actin fused with ALFA tag, expressed in XTC cells; experiment: single-molecule time-lapse imaging on fixed XTC cells expressing ALFA tag-fused actin; reference NbALFA WT
[5] = molecular target: mCherry-Hommer1 overexpressed in CTC cells; experiment: single-molecule time-lapse imaging on fixed CTC cells overexpressing mCherry-Hommer1; reference HS69 WT
[6] = molecular target: mCherry-VGLUT1 overexpressed in CTC cells; experiment: single-molecule time-lapse imaging on fixed CTC cells overexpressing mCherry-VGLUT1; reference NV-Nb9 WT
[7] = molecular target: actin fused with HA tag, expressed in XTC cells; experiment: single-molecule time-lapse imaging on fixed XTC cells expressing tag-fused actin; reference 12CA5 WT

## anti-S tag antibody clone S66B, mutant code H1L0 (HS28A), Fv-EGFP (from UniProt P03976 1-113)
[1]
  fold rise of the dissociation constant against WT: 2 times

## anti-FLAG antibody clone 2H8, mutant code H1L3 (HS28A, LY96A), Fv-EGFP (from UniProt P01631 1-113)
[2]
  fold rise of the dissociation constant against WT: 50 times

## anti-TARGET tag antibody clone P20.1, mutant code H1L0 (HY59G), Fv-EGFP (from UniProt P01724 22-129)
[3]
  fold rise of the dissociation constant against WT: 10 times

## anti-ALFA tag nanobody clone NbALFA, mutant code H2 (V27G, T28A, Y37A, E53A, R60A, V99A) (VHH)
[4]
  fold rise of the dissociation constant against WT: 1000 times

B1: anti-Homer nanobody clone HS69, mutant code H3 (S27G, T28A, F37A, Y59A) (VHH)
VHH: QVKLQESGGRLVQAGGSLRLSCTASGGAFSNSAMGWARQAPGKQRELVASIANEGQFTNAAASVKGRFTISRDNTKNVLFLQMNSLKPEDTAVYYCKLYSGRIGSSDVWGQGTQVTVSS
[5]
  fold rise of the dissociation constant against WT: 100 times

B2: anti-VGLUT nanobody clone NV-Nb9, mutant code H4 (R27G, T28A, Y32A, F37A, Y102A) (VHH)
VHH: QVQLQESGGGLVQAGDSLRLSCAASGGAWSIAGMGWARQAPGKEREFVAGITWRGGNTHYADFVKGRFTISRDNVKNTVYLQMNSLKPEDTAVYYCAANPNPSGSSVYRRNDAWGQGTQVTVSS
[6]
  fold rise of the dissociation constant against WT: 50 times

B3: anti-HA tag antibody clone 12CA5, mutant code H6L2 (HT28A, HY32A, LY49A), Fv-EGFP (protein)
heavy: EVKLVESGGDLVKPGGSLKLSCAASGFAFSSAGMSWVRQTPDKRLEWVATISRGGSYTYYPDSVKGRFTISRDNAKNTLYLQMSSLKSEDTAMYYCARRETYDEKGFAYWGQGTTVTVSS
light: DIELTQSPSSLTVTAGEKVTMSCKSSQSLLNSGNQKNYLTWYQQKPGQPPKLLIAWASTRESGVPDRFTGSGSGRDFTLTISSVQAEDLAVYYCQNDNSHPLTFGAGTKLELKA
[7]
  fold rise of the dissociation constant against WT: 100 times
